The supplement of paper PMC7877785
± gives the uncertainty stated by the source.

Assay: self-splicing fitness, log relative to wild type (ln ratio); higher = more splicing; Tetrahymena group I intron in knt gene, E. coli kanamycin selection, DiMSum; sequences stand for … in CUCUCU…GGAGGGAAAAGUUAUCAGGCAUGCACCUGGUAGCUAGUCUUUAAACCAAUAGAUUGCAUCGGUUUAAAAGGCAAGACCGUCAAAUUGCGGGAAAGGGGUCAACAGCCGUUCAGUACCAAGUCUCAGGGGAAACUUUGAGAUGGCCUUGCAAAGGGUAUGGUAAUAAGCUGACGGACAUGGUCCUAACCACGCAGCCAAGUCCUAAGUCAACAGAUCUUCUGUUGAUAUGGAUGCAGUUCACAGACUAAAUGUCGGUCGGGGAAGAUGUAUUCUUCUCAUAAGAUAUAGUCGGACCUCUCCUUAAUGGGAGCUAGCGGAUGAAGUGAUGCAACACUGGAGCCGCUGGGAACUAAUUUGUAUGCGAAAGUAUAUUGAUUAGUUUUGGAGUACUCGUGGUCG
Outline: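 Colonies from six replicate transformations of E. coli BL21(DE3) were pooled and amplicon-sequenced on an Illumina HiSeq 2500. The library placed an intron with all eight P1ex-region nucleotides randomised inside the knt kanamycin-resistance gene on pET-22b(+), and cells grew overnight at 37°C or 30°C on LB agar with or without 25 μg/mL kanamycin (plus 100 μg/mL carbenicillin, 50 μM IPTG, 0.2% rhamnose). Fitness is the DiMSum error-weighted combination of wild-type-normalised replicate fold changes, kanamycin versus none.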

Row | Sequence | self-splicing fitness (ln) (30 °C) | self-splicing fitness (ln) (37 °C)
1 | CGCUAGCAAUAUUACGACAC | -3.1 ± 0.23 | -1.33 ± 0.21
2 | CGCUAGCAAUAUUACGACUU | -2.41 ± 0.12 | -0.983 ± 0.15
3 | CGCUAGCAAUAUUACGAGUG | -2.91 ± 0.16 | -3.22 ± 0.17
4 | CGCUAGCAAUAUUACGAUAC | -3.07 ± 0.21 | -2.31 ± 0.16
5 | CGCUAGCAAUAUUACGAUCU | -0.867 ± 0.1 | -1.49 ± 0.11
6 | CGCUAGCAAUAUUACGCAUG | -2.04 ± 0.12 | -1.24 ± 0.16
7 | CGCUAGCAAUAUUACGCCGU | -0.129 ± 0.17 | -0.719 ± 0.18
8 | CGCUAGCAAUAUUACGCGCA | -1.81 ± 0.17 | -1.52 ± 0.17
9 | CGCUAGCAAUAUUACGCGCU | -3.85 ± 0.25 | -2.75 ± 0.22
10 | CGCUAGCAAUAUUACGCGGU | -3.4 ± 0.26 | -2.39 ± 0.21
11 | CGCUAGCAAUAUUACGUAUC | -3.84 ± 0.33 | -2.76 ± 0.31
12 | CGCUAGCAAUAUUACGUCCU | -1.59 ± 0.15 | -1.45 ± 0.17
13 | CGGAAGCAAUAUUACGAAAU | -3.59 ± 0.45 | -2.96 ± 0.31
14 | CGGAAGCAAUAUUACGAACU | -1.04 ± 0.1 | -0.0975 ± 0.12
15 | CGGAAGCAAUAUUACGAAUA | -2.53 ± 0.39 | 
16 | CGGAAGCAAUAUUACGAGCC | -2.13 ± 0.23 | -0.454 ± 0.22
17 | CGGAAGCAAUAUUACGCGCA | -1.9 ± 0.11 | -1.08 ± 0.094
18 | CGGAAGCAAUAUUACGCGGA | -2.73 ± 0.28 | -2.93 ± 0.43
19 | CGGAAGCAAUAUUACGCUCG | -3.42 ± 0.21 | -1.97 ± 0.23
20 | CGGAAGCAAUAUUACGGACG | -3 ± 0.27 | -2.12 ± 0.44
21 | CGGAAGCAAUAUUACGGACU | -0.00733 ± 0.094 | -0.0682 ± 0.14
22 | CGGAAGCAAUAUUACGGAGC | -2.75 ± 0.26 | -1.88 ± 0.36
23 | CGGAAGCAAUAUUACGGAUG | -2.02 ± 0.073 | -0.785 ± 0.086
24 | CGGAAGCAAUAUUACGGCCU | 0.133 ± 0.15 | 0.152 ± 0.16
25 | CGGAAGCAAUAUUACGGGGA | -3.79 ± 0.26 | -2.65 ± 0.31

Row | Sequence | self-splicing fitness (ln) (30 °C) | self-splicing fitness (ln) (37 °C)
26 | CGGAAGCAAUAUUACGGUGA | -1.64 ± 0.16 | -2.07 ± 0.22
27 | CGGAAGCAAUAUUACGUAAU | -2.35 ± 0.19 | -1.23 ± 0.19
28 | CGGAAGCAAUAUUACGUCAC |  | -1.76 ± 0.4
29 | CGGAAGCAAUAUUACGUCUA | -0.422 ± 0.097 | -0.659 ± 0.076
30 | CGGAAGCAAUAUUACGUUAA | -3.47 ± 0.36 | -3.06 ± 0.25
31 | CGGAAGCAAUAUUACGUUCA | -0.293 ± 0.13 | 0.673 ± 0.16
32 | CGGCAGCAAUAUUACGAAGG | -1.13 ± 0.12 | 0.373 ± 0.17
33 | CGGCAGCAAUAUUACGACAU | -3.303 ± 0.021 | -1.91 ± 0.035
34 | CGGCAGCAAUAUUACGACCG | -3.76 ± 0.31 | 
35 | CGGCAGCAAUAUUACGAGCU | -2.8 ± 0.17 | -1.55 ± 0.14
36 | CGGCAGCAAUAUUACGAGGU | -3.26 ± 0.19 | -1.83 ± 0.15
37 | CGGCAGCAAUAUUACGAUUG | -0.72 ± 0.055 | 0.0589 ± 0.08
38 | CGGCAGCAAUAUUACGAUUU | -3.18 ± 0.22 | -2.64 ± 0.23
39 | CGGCAGCAAUAUUACGCAUG | -2.27 ± 0.074 | -1.05 ± 0.082
40 | CGGCAGCAAUAUUACGCGGC | -2.84 ± 0.27 | -3.03 ± 0.26
41 | CGGCAGCAAUAUUACGCGUA | -1.97 ± 0.29 | -0.576 ± 0.16
42 | CGGCAGCAAUAUUACGCUCC | -4.03 ± 0.39 | -1.08 ± 0.25
43 | CGGCAGCAAUAUUACGCUCG |  | -2.93 ± 0.32
44 | CGGCAGCAAUAUUACGCUUA | -0.963 ± 0.071 | -0.184 ± 0.073
45 | CGGCAGCAAUAUUACGGAUC | -2.88 ± 0.27 | -2.04 ± 0.2
46 | CGGCAGCAAUAUUACGGAUG | -0.873 ± 0.075 | 0.507 ± 0.11
47 | CGGCAGCAAUAUUACGGCCA | -0.0175 ± 0.12 | 0.462 ± 0.16
48 | CGGCAGCAAUAUUACGGCCC | -1.31 ± 0.27 | 0.163 ± 0.21
49 | CGGCAGCAAUAUUACGGCGU | -1.6 ± 0.097 | -0.949 ± 0.1
50 | CGGCAGCAAUAUUACGGCUC | -0.945 ± 0.11 | -0.28 ± 0.15

Row | Sequence | self-splicing fitness (ln) (30 °C) | self-splicing fitness (ln) (37 °C)
51 | CGGCAGCAAUAUUACGGGAC |  | -2.85 ± 0.47
52 | CGGCAGCAAUAUUACGGGCC | -1.55 ± 0.2 | -1.98 ± 0.32
53 | CGGCAGCAAUAUUACGGUAG | -0.745 ± 0.076 | -0.0175 ± 0.074
54 | CGGCAGCAAUAUUACGGUCU | -0.384 ± 0.066 | 0.364 ± 0.087
55 | CGGCAGCAAUAUUACGGUGA | -3.35 ± 0.21 | -1.75 ± 0.17
56 | CGGCAGCAAUAUUACGGUGC | -2.88 ± 0.16 | -2.18 ± 0.19
57 | CGGCAGCAAUAUUACGGUUG | -2.93 ± 0.14 | -1.11 ± 0.12
58 | CGGCAGCAAUAUUACGUCGA | -3.24 ± 0.19 | -1.07 ± 0.15
59 | CGGCAGCAAUAUUACGUCGC |  | -0.603 ± 0.28
60 | CGGCAGCAAUAUUACGUGAC | -3.9 ± 0.13 | -1.22 ± 0.1
61 | CGGGAGCAAUAUUACGACGG | -1.4 ± 0.23 | -0.65 ± 0.42
62 | CGGGAGCAAUAUUACGAGAU |  | -2.17 ± 0.35
63 | CGGGAGCAAUAUUACGAGCG | -1.78 ± 0.18 | -1.19 ± 0.48
64 | CGGGAGCAAUAUUACGAGUA | -2.74 ± 0.42 | 
65 | CGGGAGCAAUAUUACGCAUG | -2.83 ± 0.29 | -0.773 ± 0.21
66 | CGGGAGCAAUAUUACGCGAG |  | -2.93 ± 0.32
67 | CGGGAGCAAUAUUACGCGGA | -2.82 ± 0.23 | -2.93 ± 0.28
68 | CGGGAGCAAUAUUACGCGUA | -2.29 ± 0.29 | -1.03 ± 0.24
69 | CGGGAGCAAUAUUACGGCGU | -3.6 ± 0.26 | -1.73 ± 0.21
70 | CGGGAGCAAUAUUACGGUCA | -3.17 ± 0.32 | -1.93 ± 0.28
71 | CGGGAGCAAUAUUACGUAUA | -3.33 ± 0.33 | -2.4 ± 0.25
72 | CGGGAGCAAUAUUACGUCGA |  | -1.71 ± 0.48
73 | CGGGAGCAAUAUUACGUCUG | -3.61 ± 0.22 | -2.03 ± 0.22
74 | CGGGAGCAAUAUUACGUGCA | -3.02 ± 0.27 | -2.29 ± 0.22
75 | CGGGAGCAAUAUUACGUGUG | -2.47 ± 0.16 | -0.316 ± 0.11

Row | Sequence | self-splicing fitness (ln) (30 °C) | self-splicing fitness (ln) (37 °C)
76 | CGGGAGCAAUAUUACGUUAA | -2.63 ± 0.28 | -1.68 ± 0.3
77 | CGGGAGCAAUAUUACGUUCC | -2.75 ± 0.31 | 
78 | CGGUAGCAAUAUUACGACCU | 0.308 ± 0.21 | -0.233 ± 0.19
79 | CGGUAGCAAUAUUACGACGC | -1.39 ± 0.16 | -0.431 ± 0.2
80 | CGGUAGCAAUAUUACGACGG | -0.359 ± 0.081 | 0.071 ± 0.12
81 | CGGUAGCAAUAUUACGAGAU | -3.19 ± 0.3 | -2.32 ± 0.28
82 | CGGUAGCAAUAUUACGAGGA | -3.34 ± 0.46 | -1.75 ± 0.29
83 | CGGUAGCAAUAUUACGAUAA | -2.55 ± 0.21 | -1.61 ± 0.24
84 | CGGUAGCAAUAUUACGAUCU | -0.105 ± 0.081 | 0.492 ± 0.12
85 | CGGUAGCAAUAUUACGCAAG | -1.94 ± 0.11 | -1.02 ± 0.12
86 | CGGUAGCAAUAUUACGCACG | -2.85 ± 0.21 | -1.59 ± 0.26
87 | CGGUAGCAAUAUUACGCGCA | -1.16 ± 0.14 | -0.13 ± 0.15
88 | CGGUAGCAAUAUUACGGACC | -3.71 ± 0.35 | -1.29 ± 0.21
89 | CGGUAGCAAUAUUACGGAGC | -3.01 ± 0.33 | -2.91 ± 0.34
90 | CGGUAGCAAUAUUACGGCAU | -2.98 ± 0.32 | -2.11 ± 0.22
91 | CGGUAGCAAUAUUACGGGAA | -3.45 ± 0.41 | -2.75 ± 0.29
92 | CGGUAGCAAUAUUACGGUUC | -2.96 ± 0.3 | -1.93 ± 0.29
93 | CGGUAGCAAUAUUACGUAAC | -3.22 ± 0.4 | -2.06 ± 0.41
94 | CGGUAGCAAUAUUACGUCAU | -3.21 ± 0.14 | -2.56 ± 0.15
95 | CGGUAGCAAUAUUACGUCCA | 0.282 ± 0.15 | 0.197 ± 0.23
96 | CGGUAGCAAUAUUACGUUCA | -1.32 ± 0.13 | -0.963 ± 0.15
97 | CGUAAGCAAUAUUACGAACU | -1.27 ± 0.083 | -0.364 ± 0.074
98 | CGUAAGCAAUAUUACGCAGA | -2.28 ± 0.27 | -2.67 ± 0.38
